T1: HTRA4, P83105
T1 sequence (P83105 378-476, limits assumed, looked up): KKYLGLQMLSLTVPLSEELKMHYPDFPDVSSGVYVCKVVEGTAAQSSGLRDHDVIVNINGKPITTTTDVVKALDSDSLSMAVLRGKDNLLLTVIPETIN

T2: SNTG1, Q9NSN8
T2 sequence (Q9NSN8 52-150, limits assumed, looked up): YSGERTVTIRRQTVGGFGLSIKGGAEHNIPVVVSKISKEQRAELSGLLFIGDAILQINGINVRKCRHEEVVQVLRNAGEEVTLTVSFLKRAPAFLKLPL

T3: NHERF3_3, Q5T2W1
T3 sequence (Q5T2W1 238-333, limits assumed, looked up): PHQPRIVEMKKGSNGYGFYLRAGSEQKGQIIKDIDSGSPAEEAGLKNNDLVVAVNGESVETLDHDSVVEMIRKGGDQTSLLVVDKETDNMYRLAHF

T4: NHERF3_4, Q5T2W1
T4 sequence (Q5T2W1 373-468, limits assumed, looked up): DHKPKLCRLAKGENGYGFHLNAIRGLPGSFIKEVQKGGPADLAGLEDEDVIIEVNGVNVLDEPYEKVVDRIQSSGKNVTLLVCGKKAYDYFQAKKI

T5: SNTA1, Q13424
T5 sequence (Q13424 82-180, limits assumed, looked up): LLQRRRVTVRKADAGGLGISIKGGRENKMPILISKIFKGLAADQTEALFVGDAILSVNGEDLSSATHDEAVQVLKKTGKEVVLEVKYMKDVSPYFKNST

T6: CARD11, Q9BXL7
T6 sequence (Q9BXL7 662-765, limits assumed, looked up): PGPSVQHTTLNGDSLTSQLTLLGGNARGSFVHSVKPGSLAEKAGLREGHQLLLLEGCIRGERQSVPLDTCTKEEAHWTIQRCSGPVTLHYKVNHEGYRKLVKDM

T7: TJP3_3, O95049
T7 sequence (O95049 375-456, limits assumed, looked up): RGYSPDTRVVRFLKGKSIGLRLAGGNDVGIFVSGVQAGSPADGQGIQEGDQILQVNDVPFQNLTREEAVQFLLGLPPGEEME

T8: SIPA1L2, Q9P2F8
T8 sequence (Q9P2F8 945-1036, limits assumed, looked up): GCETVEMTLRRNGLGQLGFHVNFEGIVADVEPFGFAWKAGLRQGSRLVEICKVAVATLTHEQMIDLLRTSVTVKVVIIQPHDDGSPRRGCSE

T9: PDZD2_2, O15018
T9 sequence (O15018 329-429, limits assumed, looked up): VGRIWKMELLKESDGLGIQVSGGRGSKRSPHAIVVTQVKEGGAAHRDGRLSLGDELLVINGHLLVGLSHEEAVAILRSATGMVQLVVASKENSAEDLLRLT

T10: GRIP1_2, Q9Y3R0
T10 sequence (Q9Y3R0 145-248, limits assumed, looked up): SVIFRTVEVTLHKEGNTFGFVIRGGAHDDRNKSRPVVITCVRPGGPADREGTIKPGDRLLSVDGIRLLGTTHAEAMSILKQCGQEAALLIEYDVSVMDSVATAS


Key:
Test in all cases: holdup assay
Parameters in all cases: key: below the threshold = too weak to quantify, mostly under pKd 3.1 to 4
Conditions in all cases: plain residues with an end cap or a label only (N-terminal biotin on a linker: ado-ado)
HTRA4, P83105 = biological target: T1, HTRA4, P83105
MAGI2_4, Q86UL8 = biological target: MAGI2_4, Q86UL8
SNTG1, Q9NSN8 = biological target: T2, SNTG1, Q9NSN8
PICK1, Q9NRD5 = biological target: PICK1, Q9NRD5
GRIP2_3, Q9C0E4 = biological target: GRIP2_3, Q9C0E4
Inadl_6, Q8NI35 = biological target: Inadl_6, Q8NI35
NHERF3_3, Q5T2W1 = biological target: T3, NHERF3_3, Q5T2W1
NHERF3_4, Q5T2W1 = biological target: T4, NHERF3_4, Q5T2W1
SCRIB_2, Q14160 = biological target: SCRIB_2, Q14160
LNX1_3, Q8TBB1 = biological target: LNX1_3, Q8TBB1
Inadl_5, Q8NI35 = biological target: Inadl_5, Q8NI35
SNTA1, Q13424 = biological target: T5, SNTA1, Q13424
DLG2_2, Q15700 = biological target: DLG2_2, Q15700
GOPC, Q9HD26 = biological target: GOPC, Q9HD26
NHERF4_2, Q86UT5 = biological target: NHERF4_2, Q86UT5
CARD11, Q9BXL7 = biological target: T6, CARD11, Q9BXL7
MAGI2_3, Q86UL8 = biological target: MAGI2_3, Q86UL8
MAST1, Q9Y2H9 = biological target: MAST1, Q9Y2H9
CASK, O14936 = biological target: CASK, O14936
TJP3_3, O95049 = biological target: T7, TJP3_3, O95049
SIPA1L2, Q9P2F8 = biological target: T8, SIPA1L2, Q9P2F8
MAGI2_5, Q86UL8 = biological target: MAGI2_5, Q86UL8
FRMPD2_1, Q68DX3 = biological target: FRMPD2_1, Q68DX3
PTPN3, P26045 = biological target: PTPN3, P26045
HTRA1, Q92743 = biological target: HTRA1, Q92743
PDZD2_2, O15018 = biological target: T9, PDZD2_2, O15018
LDB3, O75112 = biological target: LDB3, O75112
GRIP1_2, Q9Y3R0 = biological target: T10, GRIP1_2, Q9Y3R0
GRIP2_4, Q9C0E4 = biological target: GRIP2_4, Q9C0E4
GRIP2_4, Q9C0E4, sequence (Q9C0E4 446-548): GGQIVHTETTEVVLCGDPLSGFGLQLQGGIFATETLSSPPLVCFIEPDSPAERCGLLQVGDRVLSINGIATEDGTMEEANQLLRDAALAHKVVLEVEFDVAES

CASK, O14936, sequence (O14936 487-570): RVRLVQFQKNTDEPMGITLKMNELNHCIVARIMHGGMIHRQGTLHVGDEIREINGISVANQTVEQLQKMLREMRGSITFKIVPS
MAGI2_5, Q86UL8, sequence (Q86UL8 915-1017): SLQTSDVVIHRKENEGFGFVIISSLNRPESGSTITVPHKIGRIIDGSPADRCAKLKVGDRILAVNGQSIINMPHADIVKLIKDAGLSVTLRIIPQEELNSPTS
PICK1, Q9NRD5, sequence (Q9NRD5 17-115): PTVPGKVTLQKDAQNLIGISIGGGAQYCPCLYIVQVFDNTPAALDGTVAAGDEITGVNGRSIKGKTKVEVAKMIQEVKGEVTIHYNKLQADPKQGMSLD
Inadl_6, Q8NI35, sequence (Q8NI35 1058-1167): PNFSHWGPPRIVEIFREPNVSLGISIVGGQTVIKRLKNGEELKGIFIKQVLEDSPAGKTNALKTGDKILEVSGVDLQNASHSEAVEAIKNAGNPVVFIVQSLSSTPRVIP
LNX1_3, Q8TBB1, sequence (Q8TBB1 500-596): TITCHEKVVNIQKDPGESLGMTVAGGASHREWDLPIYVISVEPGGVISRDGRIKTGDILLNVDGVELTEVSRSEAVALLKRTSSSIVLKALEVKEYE
MAGI2_3, Q86UL8, sequence (Q86UL8 600-682): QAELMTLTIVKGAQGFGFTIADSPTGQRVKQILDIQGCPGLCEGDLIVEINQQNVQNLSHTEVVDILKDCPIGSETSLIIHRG
GRIP2_3, Q9C0E4, sequence (Q9C0E4 238-339): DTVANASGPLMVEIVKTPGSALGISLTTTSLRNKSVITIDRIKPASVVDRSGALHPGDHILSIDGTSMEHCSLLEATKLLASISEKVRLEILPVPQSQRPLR
Inadl_5, Q8NI35, sequence (Q8NI35 673-780): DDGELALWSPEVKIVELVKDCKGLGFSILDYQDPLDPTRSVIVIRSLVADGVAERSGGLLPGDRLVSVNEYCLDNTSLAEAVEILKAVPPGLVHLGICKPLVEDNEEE
MAGI2_4, Q86UL8, sequence (Q86UL8 772-865): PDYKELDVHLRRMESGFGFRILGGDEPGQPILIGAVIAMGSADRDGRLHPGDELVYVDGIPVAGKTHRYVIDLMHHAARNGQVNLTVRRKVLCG
NHERF4_2, Q86UT5, sequence (Q86UT5 220-308): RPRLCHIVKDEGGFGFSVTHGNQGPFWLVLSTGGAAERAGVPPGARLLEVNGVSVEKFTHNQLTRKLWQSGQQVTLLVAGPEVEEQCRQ
MAST1, Q9Y2H9, sequence (Q9Y2H9 962-1065): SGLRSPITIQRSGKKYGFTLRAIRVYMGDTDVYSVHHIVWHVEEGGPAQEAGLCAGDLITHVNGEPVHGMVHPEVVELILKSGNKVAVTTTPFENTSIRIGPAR
DLG2_2, Q15700, sequence (Q15700 189-283): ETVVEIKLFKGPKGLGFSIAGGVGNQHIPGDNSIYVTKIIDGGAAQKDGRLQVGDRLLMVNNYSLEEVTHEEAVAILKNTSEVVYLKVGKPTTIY
HTRA1, Q92743, sequence (Q92743 360-477): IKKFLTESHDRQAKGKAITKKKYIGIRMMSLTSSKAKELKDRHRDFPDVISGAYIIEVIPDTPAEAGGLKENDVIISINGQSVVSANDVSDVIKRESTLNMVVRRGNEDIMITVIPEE
PTPN3, P26045, sequence (P26045 505-587): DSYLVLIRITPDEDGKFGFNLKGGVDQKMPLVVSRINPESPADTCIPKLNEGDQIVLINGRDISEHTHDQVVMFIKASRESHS
LDB3, O75112, sequence (O75112 1-94): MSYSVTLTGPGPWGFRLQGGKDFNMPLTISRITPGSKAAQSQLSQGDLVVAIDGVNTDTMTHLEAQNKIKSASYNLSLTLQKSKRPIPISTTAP
SCRIB_2, Q14160, sequence (Q14160 857-960): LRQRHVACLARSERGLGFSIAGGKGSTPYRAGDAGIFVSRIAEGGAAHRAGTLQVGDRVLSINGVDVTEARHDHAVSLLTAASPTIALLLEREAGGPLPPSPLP
FRMPD2_1, Q68DX3, sequence (Q68DX3 770-861): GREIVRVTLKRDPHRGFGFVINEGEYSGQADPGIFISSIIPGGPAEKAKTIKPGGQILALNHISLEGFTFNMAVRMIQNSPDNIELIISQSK

| Binder | pKd (HTRA4, P83105) | pKd (MAGI2_4, Q86UL8) | pKd (SNTG1, Q9NSN8) | pKd (PICK1, Q9NRD5) | pKd (GRIP2_3, Q9C0E4) | pKd (Inadl_6, Q8NI35) | pKd (NHERF3_3, Q5T2W1) | pKd (NHERF3_4, Q5T2W1) | pKd (SCRIB_2, Q14160) | pKd (LNX1_3, Q8TBB1) | pKd (Inadl_5, Q8NI35) | pKd (SNTA1, Q13424) | pKd (DLG2_2, Q15700) | pKd (GOPC, Q9HD26) | pKd (NHERF4_2, Q86UT5) | pKd (CARD11, Q9BXL7) | pKd (MAGI2_3, Q86UL8) | pKd (MAST1, Q9Y2H9) | pKd (CASK, O14936) | pKd (TJP3_3, O95049) | further results |
| --- | --- | --- | --- | --- | --- | --- | --- | --- | --- | --- | --- | --- | --- | --- | --- | --- | --- | --- | --- | --- | --- |
| MLPANYVEAI [NEB, P20929] | 3.67 | below the threshold | below the threshold | 3.94 | below the threshold | below the threshold | below the threshold | below the threshold | below the threshold | below the threshold | below the threshold | below the threshold | below the threshold | below the threshold | below the threshold | below the threshold | below the threshold | below the threshold | below the threshold | below the threshold | pKd (SIPA1L2, Q9P2F8): below the threshold; pKd (MAGI2_5, Q86UL8): below the threshold; pKd (FRMPD2_1, Q68DX3): below the threshold; pKd (PTPN3, P26045): 3.64; pKd (HTRA1, Q92743): 4.03; pKd (PDZD2_2, O15018): below the threshold; pKd (LDB3, O75112): below the threshold; pKd (GRIP1_2, Q9Y3R0): below the threshold; pKd (GRIP2_4, Q9C0E4): below the threshold |
| GNDPDRGTSI [GRID2, O43424] | below the threshold | below the threshold | below the threshold | below the threshold | below the threshold | below the threshold | below the threshold | below the threshold | below the threshold | below the threshold | below the threshold | below the threshold | below the threshold | below the threshold | below the threshold | below the threshold | below the threshold | 3.94 | below the threshold | below the threshold | pKd (SIPA1L2, Q9P2F8): below the threshold; pKd (MAGI2_5, Q86UL8): below the threshold; pKd (FRMPD2_1, Q68DX3): below the threshold; pKd (PTPN3, P26045): 4.52; pKd (HTRA1, Q92743): below the threshold; pKd (PDZD2_2, O15018): 4.76; pKd (LDB3, O75112): below the threshold; pKd (GRIP1_2, Q9Y3R0): below the threshold; pKd (GRIP2_4, Q9C0E4): below the threshold |
| EPAKETTTNV [SLC2A3, P11169] | below the threshold | 3.57 | 4.06 | below the threshold | below the threshold | below the threshold | below the threshold | below the threshold | 3.68 | below the threshold | below the threshold | 4.09 | 4.16 | 3.73 | 3.56 | below the threshold | below the threshold | 4.46 | below the threshold | below the threshold | pKd (SIPA1L2, Q9P2F8): below the threshold; pKd (MAGI2_5, Q86UL8): below the threshold; pKd (FRMPD2_1, Q68DX3): below the threshold; pKd (PTPN3, P26045): 4.49; pKd (HTRA1, Q92743): 4.04; pKd (PDZD2_2, O15018): 4.97; pKd (LDB3, O75112): below the threshold; pKd (GRIP1_2, Q9Y3R0): below the threshold; pKd (GRIP2_4, Q9C0E4): below the threshold |
| SGDGKTSVWI [GJC1, P36383] | 4.64 | below the threshold | 3.61 | below the threshold | below the threshold | 3.69 | below the threshold | 3.52 | below the threshold | below the threshold | 3.55 | below the threshold | below the threshold | below the threshold | below the threshold | below the threshold | below the threshold | below the threshold | below the threshold | 4.44 | pKd (SIPA1L2, Q9P2F8): below the threshold; pKd (MAGI2_5, Q86UL8): below the threshold; pKd (FRMPD2_1, Q68DX3): 3.71; pKd (PTPN3, P26045): 4.06; pKd (HTRA1, Q92743): 4.93; pKd (PDZD2_2, O15018): 5.57; pKd (LDB3, O75112): below the threshold; pKd (GRIP1_2, Q9Y3R0): below the threshold; pKd (GRIP2_4, Q9C0E4): below the threshold |
| PGKKPEDSRV [SLCO2B1, O94956] | below the threshold | below the threshold | below the threshold | below the threshold | below the threshold | below the threshold | below the threshold | below the threshold | below the threshold | below the threshold | below the threshold | 3.97 | 3.5 | below the threshold | below the threshold | below the threshold | below the threshold | below the threshold | below the threshold | below the threshold | pKd (SIPA1L2, Q9P2F8): below the threshold; pKd (MAGI2_5, Q86UL8): below the threshold; pKd (FRMPD2_1, Q68DX3): below the threshold; pKd (PTPN3, P26045): below the threshold; pKd (HTRA1, Q92743): below the threshold; pKd (PDZD2_2, O15018): 4.45; pKd (LDB3, O75112): below the threshold; pKd (GRIP1_2, Q9Y3R0): below the threshold; pKd (GRIP2_4, Q9C0E4): below the threshold |

From publication PMC9482650, “Quantitative fragmentomics allow affinity mapping of interactomes” (Nature Communications, 2022)
